Assay results published in patent US6635802B1, “Nuclear transfer using cells cultured in serum starvation media containing apoptosis inhibitors” (The Texas A&M University System, priority 2000, dated 2003).

Columns and labels:
Assay type in all cases: cell-based
porcine PGCs [1] = experiment: In vitro culture of porcine PGCs on STO feeder cells with apoptosis inhibitors; AP-stained colonies counted; details: for Effect of timing of exposure on number of colonies, in words: all 8 days vs first 4 days vs last 4 days
From the text: Porcine fetuses were collected from hysterectomized uteri of four-way crossbred gilts (DeKalb, Ill.) between day 25 and 30 of pregnancy (estrus=day 0). Fetuses were washed in phosphate buffered saline supplemented with BSA (0.4%, Sigma St. Louis, Mo.) and penicillin/streptomycin (1%, Gibco BRL, Rockville, Md.) (PBS/BSA/PS). Urogenital ridges, appeared as longitudinal protrusions along the medial mesonephric surface, were isolated and washed in PBS/BSA/PS followed by several washes in PES medium before PGC collection. The PES medium was comprised of 50:50 mixture of Dulbecco's modified Eagle's medium (DMEM) and Ham's F10 medium supplemented with 15% fetal bovine serum (FBS), L-glutamine (2 mM), β-mercaptoethanol (0.1 mM), MEM non-essential amino acids (1%) and penicillin/streptomycin (1%). All media and supplements were purchased from Gibco BRL.
PGCs were isolated by incubation in 0.25% trypsin/1 mM EDTA solution (Gibco BRL) followed by gentle pipetting or by mechanical dissociation of ridges into small fragments followed by gentle pipetting. After tissue disruption, cells were centrifuged for 5 minutes at 250 rpm to remove tissue debris and clumps. The supernatant containing most the single cells was collected and centrifuged at 1000 rpm for 10 minutes.
PGCs were resuspended with PES medium containing cytokines, such as soluble recombinant human stem cell factor (SCF; 40 ng/ml), human basic fibroblast growth factor (bFGF; 20 ng/ml), and human leukemia inhibitory factor (LIF; 20 ng/ml). All cytokines were obtained from R&D Systems (Minneapolis, Minn.). Cell suspensions were plated on irradiated mouse STO feeder cells (3×10^6 cells per 35 mm well), prepared as previously described (Piedrahita et al., 1998) and cultured in humidified environment of 5% CO2 in air, 38° C. PGC-derived colonies with ES-like morphology after 7-10 days of culture are passaged to fresh feeders for establishment of cell lines. PGC-derived colonies were dissociated with 0.25% trypsin/1 mM EDTA (Gibco BRL) for 10 minutes. […] To identify PGC-derived cells and the state of differentiation were determined by morphology and by expression of alkaline phosphatase (AP).
AP activity was determined as described previously (Moore and Piedrahita, 1997). Briefly, culture plates were rinsed twice in PBS and fixed in 4% formaldehyde in PBS for 15 minutes at room temperature. Fixed cells were washed twice with PBS and stained in naphtol AS-MX phosphate (200 μg/ml; Sigma) and Fast Red TR salt (1 mg/ml; Sigma) in 100 mM Tris buffer, pH 8.2 for 30 minutes at room temperature. Staining was terminated by washing cultures in PBS. Specificity of AP activity was determined by staining in the presence of the AP inhibitor, tetramisole (500 μM; Sigma). Mouse ES cells also were stained as control for AP activity.
To determine the effect of apoptosis inhibitors on survival of porcine PGCs in vitro, freshly isolated PGCs were cultured as described above with or without apoptosis inhibitors, α2-macroglobulin (MAC: broad range protease inhibitor, 1.4 pM) and N-acetylcysteine (NAC: antioxidant, 1 mM). After 7-10 days of culture, colonies were stained for AP activity and counted. Studies were performed at least three replicates. The data were normalized to the treatment with no inhibitors added (control) and tested for homogeneity of variance and analyzed by ANOVA. Mean separation is accomplished by Fisher's protected LSD using software SuperANOVA (Abacus Concepts).
Dose titration of MAC (0.35, 0.7, 1.4, and 2.8 pM) and NAC (0.25, 0.5, 1.0, and 2.0 mM), to determine the optimal concentration of inhibitors, were performed.

[2] = tested on: Porcine embryonic fibroblast (PEF); experiment: TUNEL assay (flow cytometry) of serum starved porcine embryonic fibroblasts; details: serum starvation 5 days, MAC 0.7 pM, NAC 1 mM, GSH 2 mM, serum starved without inhibitor 26.50
From the text: Porcine embryonic fibroblast (PEF) were isolated from day 25-28 fetuses according to the methods previously described (Hogan et al., 1994). Briefly, porcine fetuses of day 25-30 (day 0=estrus) were removed from the uterus and rinsed with PBS+penicillin/streptomycin solution (PBS/PS). Head, limbs and internal organs were removed, and the carcasses were minced with razor blades or ground using a syringe head until they were the consistency of sludge. Then these were trypsinized 2-3 times using 0.25% trypsin+EDTA for 20 minutes. The supernatant fraction was removed and centrifuged to collect the cells. The cells were plated using DMEM+10% fetal bovine serum (FBS) and cultured up to 80-90% confluency before further passage.
Bovine embryonic fibroblasts (BEF) were isolated from the fetus with 3-5 cm crown-rump length. After two or three passages, cells were plated one million cells per plate (100 mm) with growth medium (DMEM) with 2 mM L-glutamine, 0.1 mM β-mercaptoethanol and 10% FBS. After 24 hours, cells were washed with PBS 3-5 times and then serum starvation medium with 0.5% FBS was added. In addition, cells were treated with serum starvation medium containing apoptosis inhibitors such as a2-macroglobulin (0.7 pM), N-acetylcysteine (1 mM) and glutathione (2 mM). Cells were treated with serum starvation with or without apoptosis inhibitors for 5 or 10 days. Then cells were trypsinized and counted.
After counting, cells were fixed and stained according to protocols with the APO-BRDU kit (Phoenix Flow Systems, San Diego, Calif.). […] To determine base line fluorescence, control cells were incubated without TdT. […] Following counterstaining with a propidium iodide/RNase A solution for 30 minutes in the dark, which allows simultaneous analysis of cell cycle position and apoptosis, cells were analyzed on a FACSCalibur™ flow cytometer (Becton Dickinson, San Jose, Calif.). Fluorescence emissions were measured at 582±21 nm for propidium iodide and 530±15 nm for fluorescein, without spectral compensation, after excitation at 488 nm by an argon-ion laser. […]

porcine PGCs [3] = experiment: In vitro culture of porcine PGCs on STO feeder cells with apoptosis inhibitors; AP-stained colonies counted
[4] = Table 3 combined effects study: MAC 0.7 pM, NAC 1.0 mM, alone or together, normalized to control

Which results are given for `CC(=O)N[C@@H](CS)C(=O)O` [NAC, N-acetylcysteine]?
Normalized # of Colonies + SE (porcine PGCs [1]; 0.25 mM NAC, normalized to control, Table 2 dose response): 1.23 ± 0.14; Normalized # of Colonies + SE (porcine PGCs [1]; 0.5 mM NAC, normalized to control, Table 2 dose response): 1.75 ± 0.13; Normalized # of Colonies + SE (porcine PGCs [1]; 1.0 mM NAC, normalized to control, Table 2 dose response): 2.07 ± 0.19; Normalized # of Colonies + SE (porcine PGCs [1]; 2.0 mM NAC, normalized to control, Table 2 dose response): 2.21 ± 0.04; Normalized # of Colonies + SE (porcine PGCs [1]; NAC (1.0 mM) 1-4 days (FH), Table 5 timing study): 2.86 ± 0.55; Normalized # of Colonies + SE (porcine PGCs [1]; NAC (1.0 mM) 5-8 days (LH), Table 5 timing study): 1.01 ± 0.035; Normalized # of Colonies + SE (porcine PGCs [1]; NAC (1.0 mM) all 8 days, Table 5 timing study): 2.64 ± 0.49; Normalized # of Colonies + SE (porcine PGCs [1]; Table 7 antioxidants: NAC 1.0 mM, BHA 0.1 mM, BPN 1.0 mM, CIM 2.0 mM, normalized to control): 1.93 ± 0.10; Effect of timing of exposure on number of colonies, in words (porcine PGCs [1]): Addition at later days has little effect; Concentration of maximal response (number of colonies) over the doses studied (porcine PGCs [1]; doses 0.25-2.0 mM studied): 2.0 mM; 5-day Apoptosis (%) [2]: 0.06%; Normalized # of Colonies + SE (porcine PGCs [3]; [4]): 2.73 ± 0.03

B1: α2-macroglobulin (protein, UniProt P01023 24-1474, looked up)
Alpha-2-macroglobulin: SVSGKPQYMVLVPSLLHTETTEKGCVLLSYLNETVTVSASLESVRGNRSLFTDLEAENDVLHCVAFAVPKSSSNEEVMFLTVQVKGPTQEFKKRTTVMVKNEDSLVFVQTDKSIYKPGQTVKFRVVSMDENFHPLNELIPLVYIQDPKGNRIAQWQSFQLEGGLKQFSFPLSSEPFQGSYKVVVQKKSGGRTEHPFTVEEFVLPKFEVQVTVPKIITILEEEMNVSVCGLYTYGKPVPGHVTVSICRKYSDASDCHGEDSQAFCEKFSGQLNSHGCFYQQVKTKVFQLKRKEYEMKLHTEAQIQEEGTVVELTGRQSSEITRTITKLSFVKVDSHFRQGIPFFGQVRLVDGKGVPIPNKVIFIRGNEANYYSNATTDEHGLVQFSINTTNVMGTSLTVRVNYKDRSPCYGYQWVSEEHEEAHHTAYLVFSPSKSFVHLEPMSHELPCGHTQTVQAHYILNGGTLLGLKKLSFYYLIMAKGGIVRTGTHGLLVKQEDMKGHFSISIPVKSDIAPVARLLIYAVLPTGDVIGDSAKYDVENCLANKVDLSFSPSQSLPASHAHLRVTAAPQSVCALRAVDQSVLLMKPDAELSASSVYNLLPEKDLTGFPGPLNDQDNEDCINRHNVYINGITYTPVSSTNEKDMYSFLEDMGLKAFTNSKIRKPKMCPQLQQYEMHGPEGLRVGFYESDVMGRGHARLVHVEEPHTETVRKYFPETWIWDLVVVNSAGVAEVGVTVPDTITEWKAGAFCLSEDAGLGISSTASLRAFQPFFVELTMPYSVIRGEAFTLKATVLNYLPKCIRVSVQLEASPAFLAVPVEKEQAPHCICANGRQTVSWAVTPKSLGNVNFTVSAEALESQELCGTEVPSVPEHGRKDTVIKPLLVEPEGLEKETTFNSLLCPSGGEVSEELSLKLPPNVVEESARASVSVLGDILGSAMQNTQNLLQMPYGCGEQNMVLFAPNIYVLDYLNETQQLTPEIKSKAIGYLNTGYQRQLNYKHYDGSYSTFGERYGRNQGNTWLTAFVLKTFAQARAYIFIDEAHITQALIWLSQRQKDNGCFRSSGSLLNNAIKGGVEDEVTLSAYITIALLEIPLTVTHPVVRNALFCLESAWKTAQEGDHGSHVYTKALLAYAFALAGNQDKRKEVLKSLNEEAVKKDNSVHWERPQKPKAPVGHFYEPQAPSAEVEMTSYVLLAYLTAQPAPTSEDLTSATNIVKWITKQQNAQGGFSSTQDTVVALHALSKYGAATFTRTGKAAQVTIQSSGTFSSKFQVDNNNRLLLQQVSLPELPGEYSMKVTGEGCVYLQTSLKYNILPEKEEFPFALGVQTLPQTCDEPKAHTSFQISLSVSYTGSRSASNMAIVDVKMVSGFIPLKPTVKMLERSNHVSRTEVSSNHVLIYLDKVSNQTLSLFFTVLQDVPVRDLKPAIVKVYDYYETDEFAIAEYNAPCSKDLGNA
B1 was tested. Which “Normalized # of Colonies + SE” value (porcine PGCs [1]; 0.35 pM MAC, normalized to control without inhibitor, Table 1 dose response) did it give?
The value was 1.43 ± 0.03.

What about the “Normalized # of Colonies + SE” value (porcine PGCs [1]; 0.7 pM MAC, normalized to control, Table 1 dose response) of the same molecule?
The value was 1.90 ± 0.08.

What about the “Normalized # of Colonies + SE” value (porcine PGCs [1]; 1.40 pM MAC, normalized to control, Table 1 dose response) of the same molecule?
Its value is 1.50 ± 0.01.

And the “Normalized # of Colonies + SE” value (porcine PGCs [1]; 2.8 pM MAC, normalized to control, Table 1 dose response)?
The value was 1.16 ± 0.06.

What about the “Normalized # of Colonies + SE” value (porcine PGCs [1]; MAC (0.7 pM) all 8 days, Table 4 timing study) of the same molecule?
The value was 1.64 ± 0.08.

What about the “Number of first passage colonies, in words” value (porcine PGCs [1]; added to the culture media) of the same molecule?
Its value is “increased the number of first passage colonies”.

And the “Effect of timing of exposure on number of colonies, in words” value (porcine PGCs [1])?
Its value is “maximal effects result when MAC is present throughout the incubation period”.

What about the “Concentration of maximal response (number of colonies)” value (porcine PGCs [1]; doses 0.35-2.8 pM studied) of the same molecule?
Its value is 0.7 pM.

What about the “Effect upon second passage, in words” value (porcine PGCs [1]; independent of previous culture in the presence of the molecule) of the same molecule?
Its value is “protective effect”.

What about the “Effect on the number of PGCs, in words” value (porcine PGCs [1]; single concentrations of Tables 6 and 7) of the same molecule?
Its value is “induced the most, and significantly, positive effect”.

And the “5-day Apoptosis (%)” value [2]?
Its value is 11.60%.

And the “Normalized # of Colonies + SE” value (porcine PGCs [3]; MAC (0.7 pM) 1-4 days (FH), Table 4 timing study)?
Its value is 1.21 ± 0.05.

What about the “Normalized # of Colonies + SE” value (porcine PGCs [3]; MAC (0.7 pM) 5-8 days (LH), Table 4 timing study) of the same molecule?
The value was 1.23 ± 0.09.

And the “Normalized # of Colonies + SE” value (porcine PGCs [3]; [4])?
Its value is 2.00 ± 0.18.

What about the “Normalized # of Colonies + SE” value (porcine PGCs [3]; Table 6 protease inhibitors: MAC 0.7 pM, PA 50 μM, AEBSF 250 μM, TLCK 100 μM, normalized to control) of the same molecule?
Its value is 1.72 ± 0.15.
